{
  "source": "paper PMC8036930",
  "origin": "cited, not measured here",
  "molecular_target": "albumin (Rattus norvegicus) (UniProt P02770)",
  "sequence (P02770 25-608)": "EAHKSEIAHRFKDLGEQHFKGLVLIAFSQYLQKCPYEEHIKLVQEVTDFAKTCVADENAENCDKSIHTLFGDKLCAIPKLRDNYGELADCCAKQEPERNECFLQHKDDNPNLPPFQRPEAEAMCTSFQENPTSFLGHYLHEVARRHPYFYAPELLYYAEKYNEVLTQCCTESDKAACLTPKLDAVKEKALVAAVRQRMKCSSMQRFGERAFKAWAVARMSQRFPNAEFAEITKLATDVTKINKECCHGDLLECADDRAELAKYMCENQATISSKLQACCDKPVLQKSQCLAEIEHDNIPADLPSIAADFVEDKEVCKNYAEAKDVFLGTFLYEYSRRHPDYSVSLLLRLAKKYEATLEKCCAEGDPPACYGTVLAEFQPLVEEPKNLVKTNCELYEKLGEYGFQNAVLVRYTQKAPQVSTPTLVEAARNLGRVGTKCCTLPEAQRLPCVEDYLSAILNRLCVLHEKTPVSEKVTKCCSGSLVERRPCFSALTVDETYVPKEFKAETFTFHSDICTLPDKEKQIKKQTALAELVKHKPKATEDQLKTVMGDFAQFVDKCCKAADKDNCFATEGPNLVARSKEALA",
  "data": [
    {"substance": "cubilin (from UniProt O70244)", "values": [
      {"measurement": "Kd", "result": 0.63, "unit": "µM"}
    ]}
  ]
}
